Common to all, as to type: in vivo
The test system of test [1] is human VM-Cub1 tumor cells (bladder carcinoma cells). The test is described as follows: Growth of human VM-Cub1 tumors implanted in humanized Dll4 SCID mice. The note with it: for TGI(%): day 32; for TGD: to 600 mm3. The procedure:
The humanized Dll4 SCID mouse was made by replacing the entire extracellular domain of the mouse Dll4 gene with the corresponding extracellular region of the human Dll4 gene (7 kb) in embryonic stem (ES) cells. Homozygous hDll4 mice were generated and bred into SCID background.
A total of 45 mice were divided into nine groups (n=5 per cohort). The first group was treated subcutaneously (sc) with hFc at 2 mg/kg; the second and third groups were treated sc with REGN421 at 0.5 and 2 mg/kg, respectively; the fourth and fifth groups were treated intraperitoneally (ip) with cisplatin at 0.5 and 2 mg/kg, respectively; the sixth group was treated sc with REGN421 at 0.5 mg/kg and ip with cisplatin at 0.5 mg/kg; the seventh group was treated sc with REGN421 at 0.5 mg/kg and ip with cisplatin at 2 mg/kg; the eighth group was treated sc with REGN421 at 2 mg/kg and ip with cisplatin at 0.5 mg/kg; and the ninth group was treated sc with REGN421 at 2 mg/kg and ip with cisplatin at 2 mg/kg. REGN421 was administered every 3-4 days starting on day 14 and mice received three doses total. Cisplatin was administered every 24 hours starting on day 14; mice received four doses total.
To assess the effects of REGN421 and cisplatin as single agents or in combination treatments, the changes in tumor size were recorded. Tumor growth was measured three days before the initial REGN421 treatment, on the day of each REGN421 treatment (days 14, 17 and 21) and thereafter every 3-4 days until tumors reached ˜600 mm3 in size. In vivo tumor size was calculated using the formula (length×width2)/2 (FIG. 1 and Table 1).
Tumor Growth Inhibition, TGI, was determined by calculating the difference in tumor size for treated (T) versus vehicle control (C) tumor at the day the control cohort was euthanized (i.e., at day 32); TGI=[1−(Tfinal−Tinitial)/(Cfinal−Cinitial)]×100.
(§1) Tumor growth delay, TGD, was assessed as the difference in days between treated (T) versus control (C) tumors when each cohort reached a specified tumor size. The predetermined tumor size for this experiment was 600 mm^3.

For test [2], the system named is human A549 tumor cells (non-small cell lung cancer). Put plainly: Growth of human A549 tumors implanted in humanized Dll4 SCID mice. The note with it: REGN421 2 mg/kg sc (6 mg/kg total). The protocol:
as §1
Each mouse was implanted subcutaneously (sc) with 5×10^6 human A549 tumor cells (non-small cell lung cancer or “NSCLC”). […] A total of 36 mice were divided into 6 groups (n=6 per cohort). The first group was treated sc with hFc at 2 mg/kg; the second group was treated sc with REGN421 at 2 mg/kg; the third and fourth groups were treated ip with cisplatin at 2.5 and 4.5 mg/kg, respectively; the fifth group was treated sc with REGN421 at 2 mg/kg and ip with cisplatin at 2.5 mg/kg; and the sixth group was treated sc with REGN421 at 2 mg/kg and ip with cisplatin at 4.5 mg/kg. REGN421 was administered every 3-4 days starting on day 29 and mice received three doses total. Cisplatin was administered every 24 hours starting on day 29 and mice received two doses total.
To assess the effects of REGN421 and cisplatin as single agents or in combination we measured tumor size (volume), beginning three days before the initial REGN421 treatment, on the day of each agent treatment (days 29, 30, 33, 36) and thereafter every 3-4 days until tumors reached ˜600 mm^3 in size.

Test [3] has as its system human HCT116 tumor cells (CRC). Put plainly: Growth of human HCT116 tumors in humanized Dll4 SCID mice (5-FU study). The note with it: REGN421 2 mg/kg sc (6 mg/kg total). The protocol: Each mouse was implanted subcutaneously (sc) with 5×10^6 human HCT116 tumor cells (CRC). […] The mice were then treated with hFc, REGN421, 5-FU or combination of REGN421 and 5-FU. A total of 30 mice were divided into 6 groups (n=5 per cohort). The first group was treated sc with hFc at 2 mg/kg; the second group was treated sc with REGN421 at 2 mg/kg; the third and fourth groups were treated ip with 5-FU at 15 and 25 mg/kg, respectively; the fifth group was treated sc with REGN421 at 2 mg/kg and ip with 5-FU at 15 mg/kg; and the sixth group was treated sc with REGN421 at 2 mg/kg and ip with 5-FU at 25 mg/kg. REGN421 was administered every 3-4 days starting on day 22 and mice received three doses total. 5-FU was administered every 3-4 days starting on day 22 and mice received three doses total.
To assess the effects of REGN421 and 5-FU as single agents or in combination, the changes in tumor size (volume) were measured, beginning three days before the initial REGN421 treatment, and then on the day of each agent treatment (days 22, 26, 29) and thereafter every 3-4 days until tumors reach ˜600 mm^3 in size. In vivo tumor size is calculated using the formula (length×width^2)/2 (FIG. 3 and Table 5).

B1: REGN421 (antibody, V domains shown)
VH: QVQLVESGGGVVQPGRSLRLSCAASGFTFSSYGMHWVRQAPGKGLEWVSFLWYDGTNKNYVESVKGRFTISRDNSKNMLYLEMNSLRAEDTAVYYCARDHDFRSGYEGWFDPWGQGTLVTVSS
VL: EIVLTQSPATLSLSPGERATLSCRASQSVSSYLAWYQQKPGQAPRLLIYDASNRATGIPARFSGSGSGTDFTLTISSLEPEDFAVYYCQHRSNWPPTFGGGTKVEIK
On to B1, for which, in test [1] (REGN421 0.5 mg/kg/dose sc x3), the “Euthanized” value was determined as 32 days, the “TGI(%)” value was −13.7% and the “TGD” value came to 0 days. Moreover, in test [1] (REGN421 2 mg/kg/dose sc x3), the “Euthanized” value turned out to be 44 days, the “TGI(%)” value turned out to be 83.1% and the “TGD” value was 12 days. The “reduction in tumor growth” value in test [1] (REGN421 alone, dose not stated) was 54%. In addition, in test [2], the “TGD” value is 8 days and the “TGI (%) at Day 57” value is listed as 54%. Besides, in test [3], the “TGD” value is recorded as 6 days and the “TGI(%) at Day 39” value is given as 36.3%.

These data come from patent US20140134169A1, “Methods of Treating Ovarian Cancer with Dll4 Antagonists” (Regeneron Pharmaceuticals, Inc., priority 2012, published 2014).
